From US20210269525A1 (BIOCYTOGEN PHARMACEUTICALS BEIJING, published 2021)
Where two headings read alike, the source gives them in different places. Values belong to the binder of their own block, whether it stands above or below them.

Columns and labels:
[1] = target: T1, human CD3e (T-cell surface glycoprotein CD3 epsilon chain) (human, UniProt P07766 23-207); test: cell-based or functional assay
[2] = target: T2, Cynomolgus CD3 epsilon Protein, His Tag (Acrobiosystems, Cat #CDE-05226) (cynomolgus (Macaca fascicularis), UniProt Q95LI5 22-117); test: SPR (Biacore), cynomolgus CD3e His tag
T2 construct: also called monkey CD3e; not shown: His tag
T2 sequence: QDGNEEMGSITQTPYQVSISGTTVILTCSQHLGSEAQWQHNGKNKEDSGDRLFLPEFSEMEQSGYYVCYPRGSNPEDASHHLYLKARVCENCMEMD
Protocol: The binding affinity of the anti-hCD3e antibodies with monkey CD3e (Cynomolgus CD3 epsilon Protein (SEQ ID NO: 39 AA Gln 22-Asp 117), His Tag, Acrobiosystems, Cat #CDE-05226) were also measured using surface plasmon resonance (SPR) using Biacore (Biacore, INC, Piscataway N.J.) by the methods as described in the examples.

[3] = target: T3, Histidine-tagged human CD3e protein (human, UniProt P07766 23-126); test: SPR (Biacore), human CD3e; same numbers as Table 7
T3 construct: also called hCD3e-His; not shown: His tag

[4] = target: T3, Histidine-tagged human CD3e protein; test: SPR, Biacore T200, antibody on Protein A chip, hCD3e-His injected
Protocol: (§1) The binding affinity of the anti-hCD3e antibodies were measured using surface plasmon resonance (SPR) using Biacore (Biacore, INC, Piscataway N.J.) T200 biosensor equipped with pre-immobilized Protein A sensor chips (Protein A (Lot:10260138)-5).
Anti-hCD3e antibodies were collected from CHO-S cells. The antibodies (1:20) were injected into Biacore T200 biosensor at 10 μL/min for 35 seconds to achieve to a desired protein density. Histidine-tagged human CD3e proteins (hCD3e-His) with different concentrations (100 nM 0.390625 nM) were then injected to the system at 30 μL/min for 150 seconds. Dissociation was monitored for 600 seconds. The chip was regenerated after the last injection of each titration with Glycine (pH 2.0, 30 μL/min for 5 seconds).

[5] = target: T4, Histidine-tagged rCD3e protein (rhesus macaque, Macaca mulatta) (rhesus macaque (Macaca mulatta), UniProt Q95LI5 22-117 (cynomolgus entry), limits assumed); test: SPR, Biacore T200, antibody on Protein A chip, rCD3e-His injected
T4 construct: also called rCD3e-His; rmCD3e; not shown: His tag
T4 chain: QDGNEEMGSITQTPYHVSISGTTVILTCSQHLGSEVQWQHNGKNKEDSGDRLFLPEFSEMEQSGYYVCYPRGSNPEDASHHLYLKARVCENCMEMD
Protocol: as §1
Experiments were also performed to test the binding affinities with rCD3e (rhesus macaque, or Macaca mulatta). Anti-hCD3e antibodies (1:20) were injected into Biacore T200 biosensor at 10 μL/min for 30 seconds to achieve to a desired protein density. Histidine-tagged rCD3e proteins (rCD3e-His) with different concentrations (100 nM 0.390625 nM) were then injected to the system at 30 μL/min for 150 seconds. Dissociation was monitored for 450 seconds. The chip was regenerated after the last injection of each titration with Glycine (pH 2.0, 30 μL/min for 12 seconds).

[6] = target: T1, human CD3e (T-cell surface glycoprotein …); test: cell-based or functional assay; remark: listed apart in the source
[7] = target: T1, human CD3e (T-cell surface glycoprotein …); test: cell-based or functional assay; remark: listed apart in the source
[8] = target: T3, Histidine-tagged human CD3e protein; test: SPR (Biacore), human CD3e
[9] = target: T1, human CD3e (T-cell surface glycoprotein …); test: flow cytometry, human PBMC, antibody 1 µg/mL, anti-human IgG Fc-Alexa Fluor647 (1:500), anti-hTcRβ-PerCP (1:30)
Protocol: (§2) PBMC cells were collected from a human subject. After being thawed, the cells were cultured for 3-4 hours. The medium was then discarded, and the cells were resuspended in phosphate-buffered saline (PBS). The cell concentration was then adjusted to 2×10⁶/25 μl PBS.
(§3) A 96-well plate was prepared. 25 ul of cell suspension was added to each well. […] The cells and the antibodies were incubated. After centrifuge, the residues were discarded. The samples were washed again. 25 ul of PBS was then added to each well to resuspend cells.
(§4) Anti-human IgG Fc-Alexa Fluror647 (1:500) and anit-hTcRβ PerCP (1:30) were then added to each well. The cells and the antibodies were incubated and then the cells were washed again by PBS. 300 ul of PBS was then added to each well to resuspend the cells. FACS was performed.

[10] = target: T1, human CD3e (T-cell surface glycoprotein …); test: flow cytometry, human PBMC, antibody 10 µg/mL, anti-human IgG Fc-Alexa Fluor647 (1:500), anti-hTcRβ-PerCP (1:30)
Protocol: as §2
A 96-well plate was prepared. 25 ul of cell suspension was added to each well. Anti-hCD3e antibodies with different combinations of humanized 1B1 heavy chain variants and humanized 1B1 light chain variants were diluted to 20 ug/ml (2×) in PBS, and were added to the 96-well plate. The cells and the antibodies were incubated. After centrifuge, the residues were discarded. The samples were washed again. 25 ul of PBS was then added to each well to resuspend cells.
as §4

[11] = target: T1, human CD3e (T-cell surface glycoprotein …); test: flow cytometry, human PBMC, antibody 0.1 µg/mL, anti-human IgG Fc-Alexa Fluor647 (1:500), anti-hTcRβ-PerCP (1:30)
Protocol: as §2, §3, §4

[12] = target: T5, monkey CD3e (Macaca fascicularis) on PBMC (Macaca fascicularis, UniProt Q95LI5 22-198); test: flow cytometry, Macaca fascicularis PBMC, antibody concentration not given, anti-human IgG Fc-Alexa Fluor647 (1:500), anti-hTcRβ-PerCP (1:30)
T5 construct: Target on PBMC from Macaca fascicularis; also called mfCD3e; monkey PBMC
Outline: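 Cynomolgus PBMC incubated with anti-hCD3 antibodies 15 min at 4° C, washed in PBS. Bound antibody detected with anti-human IgG Fc-Alexa Fluor647 (1:500) plus anti-hTcRβ-PerCP (1:30), 15 min at 4° C, then washed and analysed by flow cytometry.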

[13] = target: T3, Histidine-tagged human CD3e protein; test: SPR (Biacore), human CD3e; same numbers as Table 7; remark: listed apart in the source

T5 sequence (Q95LI5 22-198 limits assumed): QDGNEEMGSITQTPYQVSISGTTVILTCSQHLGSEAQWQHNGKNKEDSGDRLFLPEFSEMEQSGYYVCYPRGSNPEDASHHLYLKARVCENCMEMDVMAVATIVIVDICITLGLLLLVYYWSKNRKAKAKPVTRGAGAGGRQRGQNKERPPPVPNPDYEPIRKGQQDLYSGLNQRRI

EC50, luciferase of Jurkat-Luc-NFAT cells with CHO-FcγRIIB cells [1]: 0.421 µg/mL
B1: 25-10A4 (antibody, V domains shown)
VH: QVQLQQSGPELVKPGASVRISCKASGYTFTSYYIHWVKQRPGQGLEFIGWIYPGNVNAKYNEKFKGKATLTTDKSSTTAYMQLSSLTSEDSAVYFCAIKGGNYDWGQGTLVTVSA
VL: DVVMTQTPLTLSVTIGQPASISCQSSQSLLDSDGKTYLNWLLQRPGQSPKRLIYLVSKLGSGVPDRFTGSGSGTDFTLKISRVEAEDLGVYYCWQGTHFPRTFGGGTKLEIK

Kd [2]: 9.05 nM | koff [2]: 0.000453 s⁻¹ | kon [2]: 50000 M⁻¹ s⁻¹ | Kd [3]: 5.37 nM | koff [3]: 0.000384 s⁻¹ | kon [3]: 71500 M⁻¹ s⁻¹ | Kd [4]: 5.37 nM | koff [4]: 0.000384 s⁻¹ | kon [4]: 71500 M⁻¹ s⁻¹ | Kd [5]: 2.05 nM | koff [5]: 0.000251 s⁻¹ | kon [5]: 123000 M⁻¹ s⁻¹
B2: C3E-25-10A4-mHvKv-IgG1-LALA (antibody, V domains shown)
VH: QVQLQQSGPELVKPGASVRISCKASGYTFTSYYIHWVKQRPGQGLEFIGWIYPGNVNAKYNEKFKGKATLTTDKSSTTAYMQLSSLTSEDSAVYFCAIKGGNYDWGQGTLVTVSA
VL: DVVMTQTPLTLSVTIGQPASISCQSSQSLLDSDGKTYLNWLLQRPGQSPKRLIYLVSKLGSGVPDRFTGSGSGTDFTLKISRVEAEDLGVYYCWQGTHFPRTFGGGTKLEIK
notes: Chimeric

EC50, luciferase of Jurkat-Luc-NFAT cells; purified antibody [6]: 0.149 µg/mL | EC50, luciferase of Jurkat-Luc-NFAT cells; purified antibody [7]: 0.449 µg/mL
B3: Teplizumab (antibody, V domains shown)
VH: QVQLVQSGGGVVQPGRSLRLSCKASGYTFTRYTMHWVRQAPGKGLEWIGYINPSRGYTNYNQKVKDRFTISRDNSKNTAFLQMDSLRPEDTGVYFCARYYDDHYCLDYWGQGTPVTVSS
VL: DIQMTQSPSSLSASVGDRVTITCSASSSVSYMNWYQQTPGKAPKRWIYDTSKLASGVPSRFSGSGSGTDYTFTISSLQPEDIATYYCQQWSSNPFTFGQGTKLQITR

EC50, luciferase of Jurkat-Luc-NFAT cells with CHO-FcγRIIB cells [1]: 2.98 µg/mL
B4: 30-1B1 (antibody, V domains shown)
VH: QVQLQQPGSELVRPGASVKLSCKASGYTFTSYWMHWVKQRHGQGLEWIGNIYPDSGTTNYGEKFKTKGTLTVDTSSSTAYMHLSSLTSEDSAVYYCTRDTSGQYYFDYWGQGTTLTVSS
VL: DIVMSQSPSSLAVSAGEKVTMSCKSSQSLLNSRTRKNYLAWYQHKPGQSPKLLIYWASTRESGVPDRFTGSGSGTDFTLTISSVQAEDLAVYYCVQSFSLRAFGGGTKLEIK

EC50, luciferase of Jurkat-Luc-NFAT cells; antibody from supernatant [7]: > 3.08 µg/mL | Kd [8]: 1.2 nM | koff [8]: 0.000669 s⁻¹ | kon [8]: 558000 M⁻¹ s⁻¹ | Kd [2]: 7.59 nM | koff [2]: 0.00072 s⁻¹ | kon [2]: 94900 M⁻¹ s⁻¹ | upper left quadrant, percent of cells AF647+ / hTcRβ-PerCP- [9]: 9.83% | upper right quadrant, percent of cells AF647+ / hTcRβ-PerCP+ [9]: 62.4% | upper left quadrant, percent of cells AF647+ / hTcRβ-PerCP- [10]: 9.94% | upper right quadrant, percent of cells AF647+ / hTcRβ-PerCP+ [10]: 63.5% | upper left quadrant, percent of cells AF647+ / hTcRβ-PerCP- [11]: 11.6% | upper right quadrant, percent of cells AF647+ / hTcRβ-PerCP+ [11]: 58.1% | upper left quadrant, percent of cells AF647+ / hTcRβ-PerCP- [12]: 80.5% | upper right quadrant, percent of cells AF647+ / hTcRβ-PerCP+ [12]: 14.9%
B5: 1B1-H1K2-IgG1-LALA (antibody, V domains shown)
VH: QVQLVQSGAEVKKPGASVKVSCKASGYTFTSYWMHWVRQAPGQGLEWIGNIYPDSGTTNYGEKFKTRVTLTVDTSTSTAYMELSSLRSEDTAVYYCTRDTSGQYYFDYWGQGTLVTVSS
VL: DIVMTQSPDSLAVSAGERVTMNCKSSQSLLNSRTRKNYLAWYQHKPGQSPKLLIYWASTRESGVPDRFSGSGSGTDFTLTISSLQAEDVAVYYCVQSFSLRAFGGGTKVEIK
notes: Humanized; human IgG1 with LALA mutations; also called H1K2 (humanized 1B1)

Kd [2]: 4.54 nM | koff [2]: 0.00049 s⁻¹ | kon [2]: 108000 M⁻¹ s⁻¹ | Kd [13]: 0.988 nM | koff [13]: 0.000509 s⁻¹ | kon [13]: 516000 M⁻¹ s⁻¹ | Kd [4]: 0.988 nM | koff [4]: 0.000509 s⁻¹ | kon [4]: 516000 M⁻¹ s⁻¹ | Kd [5]: 0.752 nM | koff [5]: 0.00039 s⁻¹ | kon [5]: 518000 M⁻¹ s⁻¹
B6: C3E-30-1B1-mHvKv-IgG1-LALA (antibody, V domains shown)
VH: QVQLQQPGSELVRPGASVKLSCKASGYTFTSYWMHWVKQRHGQGLEWIGNIYPDSGTTNYGEKFKTKGTLTVDTSSSTAYMHLSSLTSEDSAVYYCTRDTSGQYYFDYWGQGTTLTVSS
VL: DIVMSQSPSSLAVSAGEKVTMSCKSSQSLLNSRTRKNYLAWYQHKPGQSPKLLIYWASTRESGVPDRFTGSGSGTDFTLTISSVQAEDLAVYYCVQSFSLRAFGGGTKLEIK
notes: Chimeric

EC50, luciferase of Jurkat-Luc-NFAT cells; antibody from supernatant [7]: > 16.7 µg/mL | Kd [8]: 1.01 nM | koff [8]: 0.000651 s⁻¹ | kon [8]: 644000 M⁻¹ s⁻¹ | Kd [2]: 5.39 nM | koff [2]: 0.000591 s⁻¹ | kon [2]: 110000 M⁻¹ s⁻¹ | upper left quadrant, percent of cells AF647+ / hTcRβ-PerCP- [9]: 10.4% | upper right quadrant, percent of cells AF647+ / hTcRβ-PerCP+ [9]: 60.6% | upper left quadrant, percent of cells AF647+ / hTcRβ-PerCP- [10]: 10.9% | upper right quadrant, percent of cells AF647+ / hTcRβ-PerCP+ [10]: 61.2% | upper left quadrant, percent of cells AF647+ / hTcRβ-PerCP- [11]: 10.8% | upper right quadrant, percent of cells AF647+ / hTcRβ-PerCP+ [11]: 59.1% | upper left quadrant, percent of cells AF647+ / hTcRβ-PerCP- [12]: 88.3% | upper right quadrant, percent of cells AF647+ / hTcRβ-PerCP+ [12]: 8.61%
B7: 1B1-H2K3-IgG1-LALA (antibody, V domains shown)
VH: QVQLVQSGAEVKKPGASVKLSCKASGYTFTSYWMHWVRQAPGQGLEWIGNIYPDSGTTNYGEKFKTRVTLTVDTSTSTAYMELSSLRSEDTAVYYCTRDTSGQYYFDYWGQGTLVTVSS
VL: DIVMTQSPDSLAVSAGERVTMNCKSSQSLLNSRTRKNYLAWYQHKPGQSPKLLIYWASTRESGVPDRFSGSGSGTDFTLTISSVQAEDVAVYYCVQSFSLRAFGGGTKLEIK
notes: Humanized; human IgG1 with LALA mutations; also called H2K3 (humanized 1B1)
